Data set [1] concerns myosin. Nature of the data set: SDS-PAGE analysis of protein cross-linking, pork extract. The following applies: for protein cross-linking (SDS-PAGE): treatment with the named enzyme alone, vs reference. The class given is biochemical. The protocol:
(§1) Protein Extractions: • 1. Brine was made using 2% NaCl and 0.3% STPP • 2. 20 g portions of meat were placed in 250 ml baffled shake flasks • 3. 60 ml of brine were added to each shake flask. • 4. The shake flasks were placed on a rotary shaker (Certomat R, Braun Int.); 120 min at room temperature and 180 rpm • 5. The meat-brine suspension was centrifuged for 60 min at 10000 g and 5° C. • 6. The fat particles were removed by filtering the supernatant through a 0.8 mm grid • 7. The meat-protein extract (supernatant) was stored at −18° C. Dialysis was carried out in Slide-A-Lyzer Dialysis Cassette from Pierce (Order nr: 66810). The dialysis was carried out at 4° C. overnight with one shift of dialysis buffer. Sample Preparation/Enzyme Treatment for SDS-PAGE Analysis Enzyme treatment of the protein extracts prior to SDS-PAGE analysis was done as follows: Tyrosinase was added to a final concentration of 15.5 nkat/ml extract (corresponding to 0.015 mg tyrosinase per ml extract) and incubated for 60 min at 40° C. TGase was added to a final concentration of 2.5 nkat/ml extract (corresponding to 0.015 mg TGase pr. ml extract) and incubated for 60 min at 40° C. sulfhydryl oxidase was added to a final concentration of 0.0033 (low sulfhydryl oxidase) or 0.033 (high sulfhydryl oxidase) nkat/ml. It was always added prior to or simultaneously with other enzyme treatment. If added prior to other enzyme treatment, an incubation time of 60 min at room temperature was applied. SDS-Page Analysis: SDS-PAGE was carried out on Pre-cast Novex Bis-Tris gels (Invitrogen, Carlsbad Calif., USA) according to manufacturers' protocol. For non-reducing SDS-PAGE, DTT was left out of the sample buffer.

For another data set, the system named is tyrosinase. Nature of the data set: Tyrosinase spot assay and test of inhibition (skimmed milk). The following applies: activity spot test, cysteine and enzyme in contact about 1 min before adding the substrate. The format is biochemical, Hypocrea jecorina. As for the experimental part: Tyrosinase Spot Assay and Test of Inhibition Spot assay of tyrosinase activity was determined by adding 11 nkat of tyrosinase to 1 ml of skimmed milk. Red colour formation within 5-10 seconds is an indication of high of tyrosinase activity. To test for tyrosinase inhibition, either the inhibitor is mixed with tyrosinase before addition to the milk or the inhibitor is added to the milk prior to tyrosinase addition. The inhibitors tested were free cysteine at final concentrations of 1 or 0.1 mM or meat extracts diluted 10 times in the final sample.

Data set [2] relates to myosin. Nature of the data set: SDS-PAGE analysis of protein cross-linking, chicken extract. The class given is biochemical. The following applies: treatment with the named enzyme alone, vs reference. The protocol:
as §1, with “C.” for “C. Dialysis was carried out in Slide-A-Lyzer Dialysis Cassette from Pierce (Order nr: 66810). The dialysis was carried out at 4° C. overnight with one shift of dialysis buffer.”, “SDS-Page Analysis: SDS-PAGE was carried out on Pre-cast Novex Bis-Tris gels (Invitrogen, Carlsbad Calif., USA) according to manufacturers' protocol. For non-reducing SDS-PAGE, DTT was left out of the sample buffer.” left out

The test system of data set [3] is myosin. As to the kind of experiment: SDS-PAGE analysis of protein cross-linking, lamb extract. The following applies: treatment with the named enzyme alone, vs reference. The class given is biochemical. As for the experimental part: as §1, with “C.” for “C. Dialysis was carried out in Slide-A-Lyzer Dialysis Cassette from Pierce (Order nr: 66810). The dialysis was carried out at 4° C. overnight with one shift of dialysis buffer.”, “SDS-Page Analysis: SDS-PAGE was carried out on Pre-cast Novex Bis-Tris gels (Invitrogen, Carlsbad Calif., USA) according to manufacturers' protocol. For non-reducing SDS-PAGE, DTT was left out of the sample buffer.” left out

Data set [4] has as its system myosin. As to the kind of experiment: SDS-PAGE analysis of protein cross-linking, turkey extract. The following applies: treatment with the named enzyme alone, vs reference. The format is biochemical. The protocol:
as §1, with “C.” for “C. Dialysis was carried out in Slide-A-Lyzer Dialysis Cassette from Pierce (Order nr: 66810). The dialysis was carried out at 4° C. overnight with one shift of dialysis buffer.”, “SDS-Page Analysis: SDS-PAGE was carried out on Pre-cast Novex Bis-Tris gels (Invitrogen, Carlsbad Calif., USA) according to manufacturers' protocol. For non-reducing SDS-PAGE, DTT was left out of the sample buffer.” left out

The subject of data set [5] is myosin. As to the kind of experiment: SDS-PAGE analysis of protein cross-linking, cod extract. The following applies: treatment with the named enzyme alone, vs reference. The format is biochemical. The protocol: as §1, with “C.” for “C. Dialysis was carried out in Slide-A-Lyzer Dialysis Cassette from Pierce (Order nr: 66810). The dialysis was carried out at 4° C. overnight with one shift of dialysis buffer.”, “SDS-Page Analysis: SDS-PAGE was carried out on Pre-cast Novex Bis-Tris gels (Invitrogen, Carlsbad Calif., USA) according to manufacturers' protocol. For non-reducing SDS-PAGE, DTT was left out of the sample buffer.” left out

For data set [6] the following is noted: according to supplier; cited from earlier work.
The subject of data set [7] is myosin. As to the kind of experiment: SDS-PAGE analysis of protein cross-linking, beef extract. The following applies: for protein cross-linking (SDS-PAGE): treatment with the named enzyme alone, vs reference. The format is biochemical. The protocol:
as §1, with “C.” for “C. Dialysis was carried out in Slide-A-Lyzer Dialysis Cassette from Pierce (Order nr: 66810). The dialysis was carried out at 4° C. overnight with one shift of dialysis buffer.”

Data set [8] can be described thus: Tyrosinase activity (nkat). The class given is biochemical. The following applies: enzyme used in the examples. As for the experimental part:
One unit of tyrosinase activity—1 nkat is defined as the amount of enzyme that converts 1 nmol of L-DOPA into DOPA-quinone pr. second at pH 7 and 25° C.

The conditions of data set [9]: according to supplier; cited from earlier work. The source holds these as a separate data set.

Entries after “also recorded” stand apart in the source; their conditions may differ.

As for `O=P(O)(O)OP(=O)(O)OP(=O)(O)O` [STPP, Sodium tripolyphosphate], the “effect of removing STPP on tyrosinase cross-linking (SDS-PAGE)” value with myosin [1] (pork extract dialysed against a solution free of STPP) is given as “no further efficiency of tyrosinase cross-linking was observed”.
Take `[Cu]` [copper]: the “effect of extra copper on tyrosinase activity” value in the data set with myosin [1] (pork extract, results not shown) is recorded as “did not seem to enhance tyrosinase activity”.
As to `N[C@@H](CS)C(=O)O` [cysteine], the “cysteine concentration giving inhibition of the tyrosinase” value in the data set on tyrosinase is reported as “above 10 μM”; in the data set with tyrosinase (listed as free cysteine), “about 10 μM”.

B1: TGase: TGase (Activa MP; Ajinomoto), well-known protein cross-linking enzyme used as positive reference (protein, UniProt P81453 77-407, looked up)
Protein-glutamine …: DSDDRVTPPAEPLDRMPDPYRPSYGRAETVVNNYIRKWQQVYSHRDGRKQQMTEEQREWLSYGCVGVTWVNSGQYPTNRLAFASFDEDRFKNELKNGRPRSGETRAEFEGRVAKESFDEEKGFQRAREVASVMNRALENAHDESAYLDNLKKELANGNDALRNEDARSPFYSALRNTPSFKERNGGNHDPSRMKAVIYSKHFWSGQDRSSSADKRKYGDPDAFRPAPGTGLVDMSRDRNIPRSPTSPGEGFVNFDYGWFGAQTEADADKTVWTHGNHYHAPNGSLGAMHVYESKFRNWSEGYSDFDRGAYVITFIPKSWNTAPDKVKQGWP
B1: the “protein cross-linking (SDS-PAGE)” value in the data set on myosin [2], with myosin [3], in the data set with myosin [4], in the data set on myosin [5], with myosin [7] and with myosin [1] (pork extract) was “efficient” each time. The TGase activity in [6] is 1666 nkat/g.

B2: TrTyr2: Tyrosinase (TrTyr2; VTT, Finland); tyrosinase 2 of Hypocrea jecorina, derived from SEQ ID NO 2 (protein, listed as Hypocrea jecorina)
chain: MLLSASLSALALATVSLAQGTTHIPVTGVPVSPGAAVPLRQNINDLAKSGPQWDLYVQAMYNMSKMDSHDPYSFFQIAGIHGAPYIEYNKAGAKSGDGWLGYCPHGEDLFISWHRPYVLLFEQALVSVAKGIANSYPPSVRAKYQAAAASLRAPYWDWAADSSVPAVTVPQTLKINVPSGSSTKTVDYTNPLKTYYFPRMSLTGSYGEFTGGGNDHTVRCAASKQSYPATANSNLAARPYKSWIYDVLTNSQNFADFASTSGPGINVEQIHNAIHWDGACGSQFLAPDYSGFDPLFFMHHAQVDRMWAFWEAIMPSSPLFTASYKGQSRFNSKSGSTITPDSPLQPFYQANGKFHTSNTVKSIQGMGYSYQGIEYWQKSQAQIKSSVTTIINQLYGPNSGKKRNAPRDFLSDIVTDVENLIKTRYFAKISVNVTEVTVRPAEINVYVGGQKAGSLIVMKLPAEGTVNGGFTIDNPMQSILHGGLRNAVQAFTEDIEVEILSKDGQAIPLETVPSLSIDLEVANVTLPSALDQLPKYGQRSRHRAKAAQRGHRFAVPHIPPL
modifications: signal peptide cleaved
Take B2: the “protein cross-linking (SDS-PAGE)” value in the data set with myosin [2] is on record as “varying degrees of myosin-band fading; also recorded: least extensive fading of the myosin band”; in the data set with myosin [3], “varying degrees of myosin-band fading; also recorded: least extensive fading of the myosin band”; in the data set with myosin [4] it was “varying degrees of myosin-band fading”; with myosin [5], “the myosin band disappears entirely; also recorded: fading of the myosin band is most pronounced”; in the data set with myosin [7] it was “indicating protein cross-linking”; in the data set with myosin [1] (pork extract), “no cross-linking seems to take place”. Further, the specific activity entry in data set [8] is recorded as “about 300 nkat/mg”. The “tyrosinase cross-linking with or without sulfhydryl oxidase-treatment (SDS-PAGE)” value with myosin [7] is given as “able to cross-link proteins”. For the same molecule, the tyrosinase activity in data set [9] is listed as 1067 nkat/ml. For the same molecule, the “tyrosinase activity after dialysis of extract (SDS-PAGE)” value with myosin [1] (pork extract dialysed against the same solution as used for extraction) was “rendered the tyrosinase active”. Also, the “tyrosinase activity after dilution of extract (SDS-PAGE)” value with myosin [1] (ten times dilution of the pork extract prior to tyrosinase treatment, results not shown) is reported as “rendered the enzyme active”.

(Values after patent US20110123676A1, “ENZYMATIC TREATMENT OF A PROTEINACEOUS SUBSTRATE BY ENZYMATIC REMOVAL OF FREE THIOLS” (priority 2008, published 2011).)
